Measured values published in the nanobody polyreactivity screen of Harvey et al. (2022).

Test: yeast display, Sf9 membrane polyspecificity reagent, FACS + sequencing; frameworks hold sequencing errors
Method in brief: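 Polyreactivity labels are assigned by the sorting gate from which each nanobody was recovered. The gates were low and high (top ~1%), set on anti-HA fluorescence for expression and streptavidin fluorescence for reagent binding. Before sorting, galactose-induced (36–48 hours) yeast display cells were stained for 1 hour at 4 °C with 10% biotinylated, detergent-solubilized Sf9 membrane reagent.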

Sequence	polyreactivity (PSR sort gate)
QVQLVESGGGLVQAGGSLRLSCAASGFTFYRNTMGWYRQAPGKERELVARIRSVGSTYYADSVKGRFTISRDNAKNTVFLQMNSLKREDTAVYYCAAGPVYDWRGGALRYYYWGQGTQVTVSS	high polyreactivity
QVQLVESGGGLVQAGGSLRLSCAASGSTFDTNVMGWYRQAPGKERDLVAAIDVSGGSTYYADSVKGRFTISRDNAKNTVYLQMNSLKPVDTAVYYCAAVDGKYGMDYWGQGTQVTVST	low polyreactivity
QVQLVESGGGLVQAGGSLRLSCAASGRIFLVYVMGWYRQAPGKERELVAAISASDGSTYYADSVKGRFTISRDNAKNTVYLQMNSLKPEDTAVYYCAEWGYSLDSNSYRELNYWGQGTQVTVSS	low polyreactivity
QVQLVESGGGLVQAGGRLRLSCAASGTRYYAMGWYRQAPGNERELVAGIRWRDGGTYYADSVKGRFTISRDNAKNTVYLQMNSLKPEDTAVYYCNAAQSVELGYDYWGQGTQVTVSS	high polyreactivity
QVQLVESGGGLVQAGGSLRLSCAASGITFVPNAMGWYRQAPGKERELVARIDNGVSTNYADSVKGRFTISRDNAKNTVYLQMNSLKPEDTAVYYCAVGYWDSRYRYDWPNSDYWGQGTQVTVSS	low polyreactivity
QVQLVESGGGLVQAGGSLRLSCAASGRTFGGNAMGWYRQAPGKERELVASISWSGGTTYYADSVKGRFTISRDNAKNTVYFQMNSLKPEDTAVYYCNTVNSQQYSSSHYDSWGQGTQVTVSS	high polyreactivity
QVQLVESGGGLVQAGGSLRLSCAASGSIFWFYAMGWYRQAPGKERELVAAITSTGGTYYADSVKGRFTISRDNAKNTVYLQMNSLKPEDTAVYYCAADRIGGPGSYLYDYWGQGTQVTVSS	low polyreactivity
QVQLVESGGGLVQAGGSLRLSCAASGRTFRNAMGWYRQEPVKEREFVATITWSGGSTYYADSVKGRFTISRDNAKNTVYLQMNSLKPEDTAVYYCAAEGRLWDWQRYDYWGQGTQVTVSS	low polyreactivity
QVQLVESGGGLVQAGGSLRLSCAASGSIFDSYAMGWYRQAPGKERELVADITSDGSTHYADSVKGRFTISRDNAKNTVYLQMNSLKAEDTAVYYCAADYFFYWLGVPVVDVYYWGQGTQVTVSS	low polyreactivity
QVQLVESGGGLVQAGGSLRLSCAASGFTFYLYAMGWYRQAPGKERELVAAITYSAGSTYYADSVKGRFTISRDNAKNTVYLQMNSLKPEDTAVYYCAKRGHYRAWGGGGYWGQGTQVTVSS	low polyreactivity
QVQIVESGGGLVQAGGSLRLTCAASGSTLTIYARGWYRQAPGKERDLVAAISRSGGRTYYADSVKGRFTISRDYAKNTVYLQMNSLKPEDTAVYYCAARGWSYRSVGYMDYWGQGTQVTVSS	high polyreactivity
QVQLVESGGGLVQAGASLRLSCAASGRTFWKYVMGWYRQAPGKDRLLVAVISRPAGSTYYADSVKGRFTISRDNAKNTVYLQMNSLKPEDTAVYYCAKRPKNKPVLGDFDHWGQGTQVTVSS	low polyreactivity
QVQLHESGGGLVQAGGSLRLSCAASGTISYAGPMGWYRQAPGKEREFVAGIGVGSNTNYADSVKGRYTIIRDNAKNTVYLQMTSLKPEDTAVYYCAVGGYAPLGRPYWGQGTQVTVSS	low polyreactivity
QVQLVESGGGLLQAGGSLRLSCAASGSIFSYYVMGWYRQAPGKERELVAAISSSGGSTYYADSVKGRFTISRDNEKNTVYLQMNSLKPEDTAVYYCAAQHYVRSSIPGFIYYYWGQGTQVTVSS	high polyreactivity
HVQLVESGGGLVQAGGSLRLSCAASGFTFPANAMGWYRQAPGKERELVAAISSSGGTYYADSVMGRFTISRDNAKNTVYLQMTSLKQEDTAVYYCAAYRFKYYYWGQGTQVSVSS	high polyreactivity
QVQLVESGGGLVQAGGSLRLSCAASGGIFGLYTMGWYRQAPGKERELVAAISKTGGSTYYADSVKGRFTISRDNAKNTVYLQMNSLNPEDTAVYYCAADGPYDDYEYWGQGTQVTVSS	high polyreactivity
QVQLVESGGGLVQAGGSLRLSCAASGRIFDDYDMGWYRQAPGKEREFVAAISTSGGSTYYADSVKGRFTISRDNAKNTVYLQMNSLKPEDTAVYYCATREYRYTGRQSRRYYWGQGTQVTVSS	high polyreactivity
QVQLQESGGGLVQAGGSLRLSCAASGSIFDSTFMGWYRQAPGKERELVAGISYGTITYYADSVKGRFTISRDNAKHRVSAEEQPESGRYRGVLLRGYPAGQLFLACWGQGTQVTESS	high polyreactivity
QVQLEESGGGLVQAGGSLRLSCAASGSTFSGYAMGWYRQATGKDRELVAAITSSGGRTYYADSVKGRFTISRDKAKNTVYLQMNSLKPEDTAVYYCAALYYHEYDYWGQGTQVTVSS	low polyreactivity
QVQLVESGGGLVQAGGSLRLSCAASGSTFWTNAMGWYRQAPGKERELVAGITDTDNHELRRLCEGRFTISRDNAKNTVYVQMNSLKPEDTAVYYCNADDTYYPLGGITGYDYWGQGTQVTVSS	low polyreactivity
QVQLVESCGGLVQAGGSLRLSCAASGITFFGYDMGWYRQAPWKEWELVAAITSTGRTYYADSVKGRFTISRDNAKKTDYLQMNSLTPEDTAVYYCNAARYPRSWYYKLDYWGQGTQVTVSS	high polyreactivity
QFQLVESGGGLVQAGGSLRLSCAASGSIFDIYAMGWYRPAPGKERELVADITISGGSTYYADSVKGRFTISRDNAKNTVYLQLNSLIPEDTAVYYCAADVTVVLGYKYDYWGQGTQVTVSS	low polyreactivity

Sequence	polyreactivity (PSR sort gate)
QVRLVESGGGLVQAGGSLRLSCAASGSTFYPYDMGWYRQAPGKERELVATISSGVSTNYADSVKGRFTISRDNAKNTVYLQMNSLKPEDTAVYYCAVDYFIGDDDYWGQGTQVTVSS	low polyreactivity
QVQLVESGGGLVQAGGSLRLSCAASGRISSGYAMGWYRKAPGKERELVAAISSIGGRTYYADSVKGRFTISRDNANNTVYLQMNSLKPEDTAVYYCNAGTYRRIGGYDYWGQGTQVTVSS	high polyreactivity
QVQLIESGGGLVQAGGSLRLSCAASGSIFAANAMGWYRQAPGKEREFVASISYTGASTYADSVKGRFTISRDNAKNTVYLQINSLKPEDTAVYYCAKDGYWTGLDPYYYWGQGTQVTVSS	low polyreactivity
QVQLVESGGGLVQAGGSLRLSCAASGRIFGTNAMGWYRQAPGKERELVATITRGGGNTYYADSVKGRFTISRDNAKNTVYLQMNSLKPEDTAVYYCAAYDSVQKYWILGFDYWGQGTQVTVSS	low polyreactivity
QVQLVESGGGLVQAGGSLRLSCAASGSIFPVYTMGWYRQAPGKEREFVATITISGAITYYADSVKGRFTISRDNAKNSVYLQMNSLKPEDTAVYYCNTGPISYPANDYWGQGTQVTVSS	low polyreactivity
QVQLVESGGGLVHAGGSLRLSCAASGSIFHFNAMGWYRQAPGKERELVARISIGGGSTYYADSVKGRFTISRDNAKNTVYFQMNSLKPEDTAVYSCAVDGSPRNKYDYWGQGTQVTVSS	high polyreactivity
QVQHVESGGGLVQAGGSLRLSCAASGFTFYGNSMGWYRPAPGKERELVAGISWRGGSTYYADSVKGRFTISRDNAKNTVYLQMNSLKPEDTAVYYCAAYLWTNYYLWEYDYWGQGTQVTVSS	high polyreactivity
QVQLVESGGGLVQAGGSLRLSCAASGITFHKYAMGWYRQAPGKERELVAAISSGGGTYYADSVKGRFTISRDNAKNTVYLQMNSLKPEDTAVYYCNADIEWLWVRYDYWGQGTQVTVSS	high polyreactivity
QVQLVESGGGLVQAGGSLRLSCAASGSTFQYNAMVGYIQAPGKERELVAAISRGSSTKYADSVKGRFTISRDNAKNTVYLQMNSLKPEDTAVYYCAVDTRPSHRTRAYYYWGQGTQVTVSS	high polyreactivity
QVQLVESGGGLVQAGGSLRLSCAASGFTFGGNAMGWYRQAPGKEREFVAAITRSGGSTYYADSVKGRFTISRDNAKNTVYLQMNSLKPEDTAVYYCAARRSYPLGYDYWGQGTQVTVSS	high polyreactivity
QVQLVESGGGLVQAGGSLRLSSAASGSTFDYYAMGWYRQAPGKERELVDGITYSGGTTYYADSVKGRFTISRDNAKNTVYLQMNSLKPEDTAVYYCNAVYDRNFYYWGQGTQVTVSS	high polyreactivity
QVQLVESGGGLVQAGGSLRLSGAASGFIFIGYTMGWYRQAPGKAWELVATISLGDDSTYYADSVKGRFTISRDNAKNTVYLQMNSLKPEDTAVYYCAGDQKDGTTSAYDYCGQGTQVTVSS	low polyreactivity
QVQLVESGGGLVQEGGSLRLSCAAYGRIFAPYSMGWYRQAPGKERELVAAITSGGSTNYADSVKGRFTISRDNAKNTVYLQMNSLKPEDTSVYYCASEASYNYVKYVVTYVYWGQGTQVTVSS	high polyreactivity
QVQLVESGGGLVQAGGSLRLSSAASGRIFRHYAMGWYRQAPGKERELVASITRGDNTYYADSVKGRFTISRDNAKNTVYLQMNSLKPEDSAVYYCAAVFYSYSSASEYYYWGQGTQVTVSS	high polyreactivity
QVQLVESGGGLYQAGGSLRLSCAASGIIFKSYLMGWDRQAPGKEREFVARITYRGGSTYYADSVKGRFTISRDNAKYTFNLQMNSLNQEDTAVYYCIARVRRRRYKYDYWGQGTQVTVST	high polyreactivity
QVQLVESGGGLVQAGGSLRLSCAASGSIFGFYAMGWYRQAPGKERELVAAIRYTGGSTYYADSVKGRFTISRDNAKNTVYLQMNSLKPEDTAVYYCNARTFRRYVSYSRTYVGYDYWGQGTQVTVSS	high polyreactivity
QVQLVESGGGLVQAGCSLRLSCAASGSIFDDYAMGWNRQAPGKERELVAAISSSGTSTYYADSVKGRFTISRDNAKNTVYLQMNSLKPEVTAVYYCAARSAILKSGYLMDYWGQGTHVTVSS	low polyreactivity
QVQLVESGGGLVQAGGSLRLSCAASGTFTVNTMGWYRQAPGKERELVAAISTGDTTTYADSVKGRFTISRDNAKNTVYLQMNSLKPEDTAVYYCNVDIGVYAYESDYWGQGTQVTVSS	low polyreactivity
QVQLVESGGGLVQAGGSLRLSCAASGFIFWPNAMGWYRQPPGKERELVAAISYSGGSTYYADSVKGRFTISRDNAKNTVYLQMNSLKPEDTAVYYCAKLPYRRVDYGYWGQGTQVTVSS	high polyreactivity
QVQLVESGGGLVQAGGSLRLSCAASGRIFVRYAMGWYRQAPGKERELVAAISWSAGSTYYADSVKGRFTISRDNAKNTVYLQMNSLKPEDTAVYYCAAEYGNYETGHYGIYDYWGQGTQVTVSS	low polyreactivity
QDQLVESGGGLVQAGGSLRLSCAASGRTLWRNTMGWYRQAPGKERELVAAITTRGGSTYYADSVKGRFTISRDNAKNTVYLQLNSLKPEDTAVYYCAARTYTGEGSGRFYYWGQGTQVTVSS	high polyreactivity
